In patent publication US20260108608A1 (GC CELL, published 2026):

Target: T1, CD5 on CD5-positive tumor cell lines (CCRF-CEM, RPMI-8402_Luc / RPMI-8402-Luciferase, RPMI-8402) (human, UniProt P06127 25-495)
T1 sequence (looked up): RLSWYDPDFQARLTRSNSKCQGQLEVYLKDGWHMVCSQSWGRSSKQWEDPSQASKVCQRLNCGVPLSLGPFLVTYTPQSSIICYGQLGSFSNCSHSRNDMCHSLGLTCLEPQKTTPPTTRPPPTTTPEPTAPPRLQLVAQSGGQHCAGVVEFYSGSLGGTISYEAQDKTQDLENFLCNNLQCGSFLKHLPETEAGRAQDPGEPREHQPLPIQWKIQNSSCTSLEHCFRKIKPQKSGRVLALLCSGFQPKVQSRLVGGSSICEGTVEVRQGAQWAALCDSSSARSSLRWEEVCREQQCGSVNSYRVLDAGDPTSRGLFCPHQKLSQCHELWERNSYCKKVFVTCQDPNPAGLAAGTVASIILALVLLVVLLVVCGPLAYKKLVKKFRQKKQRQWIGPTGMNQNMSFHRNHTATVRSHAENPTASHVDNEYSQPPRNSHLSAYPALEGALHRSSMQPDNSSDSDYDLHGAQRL
Experiment: cell-based or functional assay

B1: CD5 CAR (fourth generation), chimeric antigen receptor with anti-CD5 scFv, expressed on cord blood-derived NK cells (receptor)
chain: EIQLVQSGGGLVKPGGSVRISCAASGYTFTNYGMNWVRQAPGKGLEWMGWINTHTGEPTYADSFKGRFTFSLDDSKNTAYLQINSLRAEDTAVYFCTRRGYDWYFDVWGQGTTVTVSSGGGGSGGGGSGGGGSDIQMTQSPSSLSASVGDRVTITCRASQDINSYLSWFQQKPGKAPKTLIYRANRLESGVPSRFSGSGSGTDYTLTISSLQYEDFGIYYCQQYDESPWTFGGGTKLEIKAKPTTTPAPRPPTPAPTIASQPLSLRPEACRPAAGGAVHTRGLDFACDFWVLVVVGGVLACYSLLVTVAFIIFWVRSKRSRLLHSDYMNMTPRRPGPTRKHYQPYAPPRDFAAYRSERVQPLEENVGNAARPRFERNKRVKFSRSADAPAYQQGQNQLYNELNLGRREEYDVLDKRRGRDPEMGGKPRRKNPQEGLYNELQKDKMAEAYSEIGMKGERRRGKGHDGLYQGLSTATKDTYDALHMQALPPR
expression of CD107a and cytokines (IFN-γ and TNF-α) in NK cells co-cultured with CCRF-CEM and RPMI-8402_Luc, CD5 CAR-NK against CBNK: ≥ 2 fold
